Several values for one entry are separate records, joined by “and”; a condition that tells them apart may be missing. Equal values may be shown once.
Tests used:
[1] = molecular target: tES–F116H(+) (Archaeoglobus fulgidus); assay: AUC; sedimentation of tES–F116H/POI samples (1 µM) in PBS, 20 °C, absorbance at 280 nm; POI loaded into tES by pH shift 5.8 to 8.0 and dialysis
[2] = molecular target: tES–F116H(+) (Archaeoglobus fulgidus); assay: AUC
[3] = molecular target: tES–F116H(+/–) (Archaeoglobus fulgidus); assay: AUC
[4] = molecular target: tES–F116H(–) (Archaeoglobus fulgidus); assay: AUC
[5] = molecular target: tES–F116H(+) (Archaeoglobus fulgidus); assay: AUC; remark: listed apart in the source
AUC = molecular target: the molecule itself; assay: AUC

## Renilla luciferin 2-monooxygenase (from UniProt P27652 1-311) (enzyme)
[1]
  stoichiometry N (rLuc per tES shell): 2 and 1

## Tumor protein 53, stabilized clone (from UniProt P04637 1-393) (natural protein)
[2]
  stoichiometry N (p53 per tES shell): 1
[3]
  stoichiometry N (p53 per tES shell): 1

## rFasxiator (natural protein)
[4]
  stoichiometry N (rFasxiator per tES shell): 3

B1: Shrimp alkaline phosphatase (enzyme, UniProt Q9BHT8 1-475, looked up)
chain: KAYWNKDAQDALDKQLGIKLREKQAKNVIFFLGDGMSLSTVTAARIYKGGLTGKFEREKISWEEFDFAALSKTYNTDKQVTDSAASATAYLTGVKTNQGVIGLDANTVRTNCSYQLDESLFTYSIAHWFQEAGRSTGVVTSTRVTHATPAGTYAHVADRDWENDSDVVHDREDPEICDDIAEQLVFREPGKNFKVIMGGGRRGFFPEEALDIEDGIPGEREDGKHLITDWLDDKASQGATASYVWNRDDLLAVDIRNTDYLMGLFSYTHLDTVLTRDAEMDPTLPEMTKVAIEMLTKDENGFFLLVEGGRIDHMHHANQIRQSLAETLDMEEAVSMALSMTDPEETIILVTADHGHTLTITGYADRNTDILDFAGISDLDDRRYTILDYGSGPGYHITEDGKRYEPTEEDLKDINFRYASAAPKHSVTHDGTDVGIWVNGPFAHLFTGVYEENYIPHALAYAACVGTGRTFCDEK
notes: also called sAP; AP
[5]
  stoichiometry N (sAP per tES shell): 1
AUC
  stoichiometry N: 2

From article PMC8481291 (Nature Communications, 2021)
